# Results: publication PMC9464236, “Biochemical characterization of a disease-causing human osteoprotegerin variant” (Scientific Reports, 2022)
# Where “and” joins values, the source holds several entries; their conditions need not be identical. Equal values may be shown once.
# T1: recombinant soluble RANKL (sRANKL) (UniProt O35235 139-316)
# T1 chain: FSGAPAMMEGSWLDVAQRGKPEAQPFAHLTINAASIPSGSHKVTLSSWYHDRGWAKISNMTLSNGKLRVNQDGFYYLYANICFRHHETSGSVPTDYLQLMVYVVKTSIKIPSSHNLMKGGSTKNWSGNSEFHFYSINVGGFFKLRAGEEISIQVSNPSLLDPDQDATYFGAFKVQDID
# What was measured:
# [1] = target: the molecule itself; assay: SEC; Superdex 200, 25 mM HEPES pH 7.1, 150 mM NaCl; peak fractions from the heparin Sepharose column; ferritin (440 kDa) and IgG (150 kDa) as markers
# [2] = target: T1, recombinant soluble RANKL (sRANKL); assay: ELISA
Kd [2] [nM],Binder,stoichiometry N [1]
4.8,"wildtype human osteoprotegerin (WT OPG) (receptor, UniProt O00300 22-401, looked up, Osteoprotegerin (OPG, TNFRSF11B), human; complete open reading frame of full-length human OPG in pcDNA3.4-TOPO; stop codon at position 402; Disulfide-linked dimer; assays used the SEC-purified dimer; also called WT hOPG; hOPG; source: 293-freestyle cells, transiently transfected; purified from medium (heparin Sepharose, Superdex 200)) ETFPPKYLHYDEETSHQLLCDKCPPGTYLKQHCTAKWKTVCAPCPDHYYTDSWHTSDECLYCSPVCKELQYVKQECNRTHNRVCECKEGRYLEIEFCLKHRSCPPGFGVVQAGTPERNTVCKRCPDGFFSNETSSKAPCRKHTNCSVFGLLLTQKGNATHDNICSGNSESTQKCGIDVTLCEEAFFRFAVPTKFTPNWLSVLVDNLPGTKVNAESVERIKRQHSSQEQTFQLLKLWKHQNKDQDIVKKIIQDIDLCENSVQRHIGHANLTFEQLRSLMESLPGKKVGAEDIEKTIKACKPSDQILKLLSLWRIKNGDQDTLKGLMHALKHSKTYHFPKTVTQSLKKTIRFLHSFTMYKLYQKLFLEMIGNQVQSVKISCL",2
4.65,"human osteoprotegerin Stop402Leu mutant with a 19-residue C-terminal appendage (OPG^+19) (receptor, Osteoprotegerin (OPG, TNFRSF11B), human; complete open reading frame, residues up to 401, followed by the read-through appendage; 19-residue appendage 402-420 made by read-through of the mutated stop codon (Stop402Leu); Secreted; Mixture of higher-order oligomers; also called mutant hOPG; mutant OPG; source: 293-freestyle cells, transiently transfected; purified from medium (heparin Sepharose, …)) ETFPPKYLHYDEETSHQLLCDKCPPGTYLKQHCTAKWKTVCAPCPDHYYTDSWHTSDECLYCSPVCKELQYVKQECNRTHNRVCECKEGRYLEIEFCLKHRSCPPGFGVVQAGTPERNTVCKRCPDGFFSNETSSKAPCRKHTNCSVFGLLLTQKGNATHDNICSGNSESTQKCGIDVTLCEEAFFRFAVPTKFTPNWLSVLVDNLPGTKVNAESVERIKRQHSSQEQTFQLLKLWKHQNKDQDIVKKIIQDIDLCENSVQRHIGHANLTFEQLRSLMESLPGKKVGAEDIEKTIKACKPSDQILKLLSLWRIKNGDQDTLKGLMHALKHSKTYHFPKTVTQSLKKTIRFLHSFTMYKLYQKLFLEMIGNQVQSVKISCLLLEMAIELFPHNWRDPMDE",12 and 6 and 4
